From the DeepSol protein solubility set

Assay: soluble on expression in E. coli; label from the status in PepcDB or PDB records

Sequence | soluble on expression in E. coli
TAGFSLNVLTINTHKGFTAFNRRFILPELRDAVRSVSADIVCLQEVMGAHEVHPLHIENWPDTTHYEFLADTMWSDYAYGRNAVYPEGHHGNAVLSRFPIEYYENRDISVGNGEKRGLLYCRIVPPRSGITIHVICVHLGLRADQRQAQLTMLAEWVNTLPAGEPVVVAGDFNDWRQQANQPLKAQAGLEEIFTRARGRPARTFPVSFPLLRLDRIYVKNAHASRPKALALKQWRHLSDHAPLSVEIHL | not soluble
MGHHHHHHSHMACKCDCKNKQCKCGDKCECSGDKCCEKYCCEEASEKKCCPAGCKGDCKCANCHCAEQKQCGDKTHQHQGTAAAH | not soluble
MGSDKIHHHHHHMLAYGYQKFGGPTVFEELPQSQLIPTDNQLLIKTLAVNLTEEDRLERLGTIQSVALPHIPGHDVIGKIIQVGAAVTDLDVGTVVAARTNHTYADQVCLDSDLAVTMPTNLDPVTAVSLVTPGIVAYKTVRYFADIQADQTVIVKGAGSPVGLLIIQLAKRLGAHVIAIASDRYANLIATLGVDQFVDYQHQNPVHVLADRGDVVINVAIDGVGGKDDLAMAKFDATIASFARHLPATSKSIRFQAIQPTEVISDQAALQLLFKLLDTGQLTTTINEQLPFNLTGFIQGHQRLDEPHVGQVVVAR | not soluble
MNDQRKKARNTPFNMLKRERNRVSTVQQLTKRFSLGMLQGRGPLKLFMALVAFLRFLTIPPTAGILKRWGTIKKSKAINVLRGFRKEIGRMLNILNRRRR | soluble
MGSDKIHHHHHHACSGQLDTIQEYLDAGETIYAAKMDSVDIRPGYNRVEVTGLLKYGMDTERCVIHWTPDNDSLVVPVKRIDPVDTFRVFIENLPEGTYQFEIVTYNKSGYRSISTSKGSKTYGDRYISSLRVRSLLSTEVEGENLLLNFSSEMAEALATKVFYLNSAGEKQEQEVARGDNQIKITDWKPRGAYEVKTYYIPEVNAVDTFSVSSTGVFPEKIVEMDKSTFREIILDNDIRLNAWGGALWKAWDNAYENTNYAHSDNTNPIVFPAWFTFDLGEKALLKRFDLFSVVRDDLNYNGGNMKSWEIWGREDEPANSSWDGWTKLITCNSFKPSGKPVGENTDEDNSYIAKGEKFDFPSGIPEVRYIRIKVLDSWSGQGYVQFSEFTFYKSE | not soluble
MIRAFLVVALASVAVFSAPIPEVPQNFDDIPAEYKGLIPAEVAEHLKAITAEEKAALKELAQNHKEYKTEEEFKAALKEKSPSLYEKAGKLEALLTAKFEKLDATAQALVKKIIAKGRELHQQYLAGDKPTLDSLKELAKGYIAEYKALSDDAKATITAEFPILTGFFQNEKIQAIVGQYVN | not soluble
MADPWLSIIGLGEDGPAGLPDASRAALEAAEVVVGGPRHLALVDARARGMEWPVPFDPAPVLALRGRPVAVLASGDPFWHGAGGSLAAALSPGEWRAYPAPGVVALAAARLGWRQEELLALGLHAAPFERLLPELAPGRRGVCTLRDGPAAGALAAFLAAEGWGESRLWVMEALGGPRERVRATTAGAFSLTDVAAPVTVAFEAEGGRAQPRSAGLPDSLFAHDGQITKAPVRALTLAALAPRRGEILWDLGAGSGSVSVEWCLAGGRAVAVELRPERAANIRANAARFALPLEVVEGRALDNLPALPAPDAIFVGGGFDEALFAALPPTARLVVNAVTLETEALLAALQARHGGELLRIELARAAPLGRMRGWEAARPVVQWSLVR | not soluble
MAHHHHHHSLTQQYLTVTALTKYLKRKFDADPYLGRVYLTGEISNFRFRANAHQYFSLKDDHAKISAIMFKSAFQKLKFQPKEGMKVMVVGRISLYENSGSYQIYIEHMEPDGVGALYQALAELREKLGKEGLFEGPKQQLPRYPKRIAVVTSPSGAVIRDIITTVKRRYPIAQLVLFPTLVQGEQAADDIVRNIQRADAQSDFDTMIIGRGGGSIEDLWPFNEEKVARAIHAATTPIISSVGHETDVTIADMVADVRAATPTAAAELAVPVLNEELLRISERRSRLEQSFLYLLQQRTERFQRLQNSYVFKQPERLYEGQTIKLDRMTQRLFQAMTTIHHQKQRQAQGIIAQLQQQTPKGQLRESQQQLAFLQRNLQTQMTQLFLNKQKQFTSAVQQLDLLSPLKIMGRGYSYTTKEDRVVKTVTELQPADQLTIHYADGTVQANVETITAKKEEFEG | soluble
MLAVSFIAGVILIGLYGVDSSERYIAVSELLANPQDYSGQNINAMGVVEDRSLHKDPGVTSFDLKDENDENLKIHVNYVGNLPSNLAEGKQVTIRGSMISESTFEANKIVTGCPSKYTELEHHHHHH | not soluble
